Measurements reported in patent US20100009907A1, “Glucagon-Like Peptides and Uses Thereof” (AMYLIN PHARMACEUTICALS, INC., priority 2006, published 2010).
Where a chain is given by its changes, count along the chain named. Where no end group is shown, it is not given here.

B1: SEQ ID NO 21 (peptide)
peptide: HAEGTYTNDVTEYLEEKAAKEFIEWLINGGPSKEIIS
notes: also called nmGLP-1 analog
B2: SEQ ID NO 1 (peptide)
peptide: HAEGTFTSDVTQQLDEKAAKEFIDWLINGGPSKEIIS-OH
notes: also called nmGLP-1 peptide; naturally occurring nmGLP-1
B3: SEQ ID NO 13 (peptide)
peptide: HAEGTFTSDVTQQLDEKAAKEFIDALINGGPSKEIIS
notes: also called nmGLP-1 analog
B4: SEQ ID NO 12 (peptide)
peptide: B3 peptide with A25W, P31A
notes: also called nmGLP-1 analog
B5: SEQ ID NO 49 (peptide)
peptide: HADGTYTSDVSSYLQDQAAKDFITWLKSGQPKPDAVETRSVDTL
notes: as for B2
B6: SEQ ID NO 14 (peptide)
peptide: HAEGTFTSDVTQQLDEKAAKEFIDWLINPGSEGIKSI
notes: also called nmGLP-1 analog
B7: SEQ ID NO 6 (peptide)
peptide: HAEGTFTNDMTNYLEEKAAKEFVGWLIKGRS
notes: also called nmGLP-1 analog
B8: SEQ ID NO 11 (peptide)
peptide: B3 peptide with A25W
notes: also called nmGLP-1 analog
B9: SEQ ID NO 10 (peptide)
peptide: B3 peptide with A2X, A25W
modifications: here or on the partner: dAla at position 2 (a = dAla)
B10: SEQ ID NO 52 (peptide)
peptide: HADGTFTNDMTSYLDAKAARDFVSWLARSDKS
notes: as for B2
B11: SEQ ID NO 23 (peptide)
peptide: HXEGTYTNDVTEYLEEKAAKEFIEWLIKGKPKKIRYS
modifications: here or on the partner: dAla at position 2 (a = dAla)
B12: SEQ ID NO 27 (peptide)
peptide: B11 peptide
modifications: here or on the partner: Aib (2-Aminoisobutyric acid) at position 2
B13: SEQ ID NO 9 (peptide)
peptide: HAEGTFTSDVTQQLDEKAAKEFIDWLINGGPSSGAPPPS
B14: SEQ ID NO 50 (peptide)
peptide: HAEGTYTNDVTQFLEEKAAKEFIDWLIKGKPKKQRLS
B15: SEQ ID NO 53 (peptide)
peptide: B14 peptide with A2X
modifications: here or on the partner: Abu (2-Aminobutyric acid) at position 2
B16: SEQ ID NO 54 (peptide)
peptide: B14 peptide with A2X
modifications: here or on the partner: dAla at position 2 (a = dAla)
B17: SEQ ID NO 55 (peptide)
peptide: B14 peptide with A2G
notes: also called nmGLP-1 analog
B18: SEQ ID NO 22 (peptide)
peptide: HAEGTFTSDVTQQLEEKAAKEFIEWLIKGKPKKIRYS
notes: also called nmGLP-1 analog
B19: SEQ ID NO 2 (peptide)
peptide: B11 peptide with X2A
notes: as for B2
B20: SEQ ID NO 26 (peptide)
peptide: B11 peptide with X2G
notes: also called nmGLP-1 analog
B21: SEQ ID NO 24 (peptide)
peptide: HAEGTYTNDVTEYLEEKAAKEFIEWLIN
notes: also called nmGLP-1 analog
B22: SEQ ID NO 25 (peptide)
peptide: HAEGTYTNDVTEYLEEKAAKEFIEWLIK
notes: also called nmGLP-1 analog
B23: SEQ ID NO 7 (peptide)
peptide: HAEGTFTSDVTQQLDEKAAKEFIDWLIN
notes: also called nmGLP-1 analog
B24: SEQ ID NO 48 (peptide)
peptide: HADGTYTSDVSSYLQDQAAKDFITWLKSGQPKPDAVET
notes: as for B2
B25: SEQ ID NO 51 (peptide)
peptide: YADAPYISDVYSYLQDQVAKKWLKSGQD
notes: as for B2
B26: SEQ ID NO 8 (peptide)
peptide: HXEGTFTSDVTQQLDEKAAKEFIDWLIN
modifications: here or on the partner: dAla at position 2 (a = dAla)
B27: SEQ ID NO 10 (peptide)
peptide: B3 peptide with A2X, A25W
modifications: dAla at position 2 (a = dAla)
notes: also called nmGLP-1 analog
B28: SEQ ID NO 27 (peptide)
peptide: B11 peptide
modifications: Aib (2-Aminoisobutyric acid) at position 2
notes: also called nmGLP-1 analog
B29: SEQ ID NO 28 (peptide)
peptide: B11 peptide
modifications: Abu (2-Aminobutyric acid) at position 2
notes: also called nmGLP-1 analog
B30: SEQ ID NO 38 (peptide)
peptide: HAEGTYTNDVTEYEEKAAKEFIEWLIKGKPKKIRYS
notes: also called nmGLP-1 analog
B31: SEQ ID NO 33 (peptide)
peptide: B30 peptide with Y13L
notes: also called nmGLP-1 analog
B32: SEQ ID NO 30 (peptide)
peptide: B30 peptide with E14L, K16E
notes: also called nmGLP-1 analog
B33: SEQ ID NO 39 (peptide)
peptide: B30 peptide with V10T, T11E, E12Y, Y13L
notes: also called nmGLP-1 analog
B34: SEQ ID NO 41 (peptide)
peptide: B30 peptide with E12Y, Y13L
notes: also called nmGLP-1 analog
B35: SEQ ID NO 29 (peptide)
peptide: B30 peptide with E14L
notes: also called nmGLP-1 analog
B36: SEQ ID NO 34 (peptide)
peptide: HAEGTYTNDVTEYLEEKAAKEFIEWLIKGKPKKIRY
notes: also called nmGLP-1 analog
B37: SEQ ID NO 37 (peptide)
peptide: EGTYTNDVTEYLEEKAAKEFIEWLIKGKPKKIRYS
notes: also called nmGLP-1 analog
B38: SEQ ID NO 35 (peptide)
peptide: HAEGTYTNDVTEYLEEKAAKEFIEWLIGKPKKIRYS
notes: also called nmGLP-1 analog
B39: SEQ ID NO 36 (peptide)
peptide: B38 peptide with G28K, K29G
notes: also called nmGLP-1 analog
B40: SEQ ID NO 40 (peptide)
peptide: HAEGTYTNDVTEYLEEKAAKEFIEWLIKGKPK
B41: SEQ ID NO 44 (peptide)
peptide: HAEGTYTNDVTEYLEEKAAKEFIEWL
B42: SEQ ID NO 53 (peptide)
peptide: B14 peptide with A2X
modifications: Abu (2-Aminobutyric acid) at position 2
B43: SEQ ID NO 31 (peptide)
peptide: HAEGTYTNDVTEYLEEKAAKFIEWLIKGKPKKIRYS
notes: also called nmGLP-1 analog
B44: SEQ ID NO 46 (peptide)
peptide: HAEGTYTNDVTEYLEEKAAKEFIEW
B45: SEQ ID NO 42 (peptide)
peptide: HAEGTYTNDVTEYLEEKAAKEFIEWLI
B46: SEQ ID NO 43 (peptide)
peptide: HXEGTYTNDVTEYLEEKAAKEFIEWLI
modifications: dAla at position 2 (a = dAla)
B47: SEQ ID NO 45 (peptide)
peptide: HXEGTYTNDVTEYLEEKAAKEFIEWL
modifications: dAla at position 2 (a = dAla)
B48: SEQ ID NO 32 (peptide)
peptide: HAEGTYTNDVTEYLEEKAAKEFIEWLIPKKIRYS
notes: also called nmGLP-1 analog

Each binder was assayed against endogenous GLP-1, calcitonin, and GIP receptors of RINm5f cells (assay: cell-based or functional assay).

| Binder | GLP/GIP/CT cAMP(RIN) EC50 [nM] |
| --- | --- |
| B1 | 1 |
| B2 | 1.9 |
| B3 | 196 |
| B4 | 0.29 |
| B5 | 415 |
| B6 | 18 |
| B7 | 1.23 |
| B8 | 0.59 |
| B9 | 0.048 |
| B10 | 382 |
| B11 | 0.22 |
| B12 | 0.544 |
| B13 | 0.28 |
| B14 | 0.14 |
| B15 | 0.146 |
| B16 | 0.435 |
| B17 | 0.576 |
| B18 | 0.1 |
| B19 | 0.36 |
| B20 | 0.967 |
| B21 | 0.85 |
| B22 | 0.53 |
| B23 | 4.7 |
| B24 | 14 |
| B25 | 971 |
| B26 | 19 |

What follows are binders tested against T1, GLP-1 receptor (endogenous, RINm5F cell membranes; rat thyroid carcinoma 6-23 clone 6 cells) (rat, UniProt P32301 22-463) (assay: displacement of [125I]GLP-1 from RINm5F cell membranes (GLP RBA)).
T1 construct: whole, on cells
T1 sequence (looked up): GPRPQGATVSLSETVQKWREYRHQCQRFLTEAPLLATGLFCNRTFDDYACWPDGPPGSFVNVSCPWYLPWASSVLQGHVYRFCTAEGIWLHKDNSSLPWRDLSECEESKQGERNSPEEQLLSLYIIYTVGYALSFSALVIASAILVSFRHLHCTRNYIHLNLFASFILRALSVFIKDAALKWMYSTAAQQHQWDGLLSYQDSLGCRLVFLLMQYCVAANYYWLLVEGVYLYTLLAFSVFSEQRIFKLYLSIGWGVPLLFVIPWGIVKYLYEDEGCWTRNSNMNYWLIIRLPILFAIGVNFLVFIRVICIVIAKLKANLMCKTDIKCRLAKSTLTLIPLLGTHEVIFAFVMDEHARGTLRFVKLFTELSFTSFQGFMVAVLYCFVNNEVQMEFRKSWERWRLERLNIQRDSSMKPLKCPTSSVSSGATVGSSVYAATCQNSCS
Protocol: GLP-1 receptor binding activity and affinity can be measured using a binding displacement assay in which the receptor source is RINm5F cell membranes, and the ligand is [¹²⁵I]GLP-1. Homogenized RINm5F cell membranes are incubated in 20 mM HEPES buffer with 40,000 cpm [¹²⁵I]GLP-1 tracer, and varying concentrations of test compound for 60 minutes at 23° C. with constant mixing. Reaction mixtures are filtered through glass filter pads presoaked with 0.3% PEI solution and rinsed with ice-cold phosphate buffered saline. Bound counts are determined using a scintillation counter. Binding affinities are calculated using GraphPad Prism software (GraphPad Software, Inc., San Diego, Calif.).

| Binder | IC50 [nM] |
| --- | --- |
| B1 | 2.1 |
| B4 | 8.8 |
| B5 | 74 |
| B8 | 2.3 |
| B27 | 1.9 |
| B10 | 0.9 |
| B28 | 0.1 |
| B29 | 0.067 |
| B17 | 0.05 |
| B18 | 0.067 |
| B30 | 42 |
| B31 | 81 |
| B32 | 537 |
| B33 | 61 |
| B34 | 9 |
| B35 | 91 |
| B21 | 1.3 |
| B22 | 0.54 |
| B36 | 15 |
| B25 | 111 |

These binders were tested against T1, GLP-1 receptor (endogenous, RINm5F cell …) (assay: cell-based or functional assay).

| Binder | GLP-1 cAMP (6-23) EC50 [nM] |
| --- | --- |
| B37 | > 1000 |
| B2 | 7.7 |
| B6 | 2.2 |
| B38 | 0.172 |
| B39 | 0.086 |
| B40 | 0.12 |
| B41 | 23 |
| B42 | 0.12 |
| B19 | 0.82 |
| B20 | 0.16 |
| B30 | 104 |
| B31 | 145 |
| B32 | > 1000 |
| B43 | 44 |
| B33 | > 1000 |
| B34 | 220 |
| B35 | 930 |
| B44 | 1940 |
| B36 | 0.095 |
| B45 | 0.22 |
| B46 | 0.14 |
| B47 | 34 |
| B24 | 2.34 |
| B48 | 8.3 |
